B1: Clone 54 4-1BB antibody (IgG2a) (antibody, V domains shown)
VH: EFQLQQSGPELVKPGASVKISCKASGYSFTDYNMNWVKQSNGKSLEWIGVINPNYGTTSYNQKFKGKATFTVDQSSSTAYMQLNSLTSEDSAVYYCARSPVEDYFDYWGQGTTLTVSS
VL: ENVLTQSPAIMSASPGEKVTMTCRARSSVSSSYLHWYQQKSGASPKLWIYSTSNLASGVPARFSGSGSGTSYSLTISSVEAEDAATYYCQQYSGYPLITFGAGTKLELKR
B2: Clone 49A 4-1BB antibody (IgG1) (antibody, V domains shown)
VH: VKLQQSGPELVKPGASVKISCKASGYTFTDYYMNWVKESHGKSLEWIGDINPNNGGSTYYNQKFKGKATLTVEKSSSTAFMELRSLTSEDSAVYYCARSLYGSTYYFDYWGQGTPLTVSS
VL: DIVLTQSPASLAVSLGQRATISCKASQSVDYDGDSYMNWYQQKPGQPPKLLIYAASNLESGIPARFSGSGSGTDFTLNIHPVEEEDAGTYYCQQSNDDPWTFGGGTKLEIK
B3: Clone 138 4-1BB antibody (IgG2b) (antibody, V domains shown)
VH: VQLQESGGGLVKPGGSLKLSCAASGFTFSDYGMHWVRQAPEKGLEWVAYISSGSNSIYYADTVTGRFTISRDNAKNTLFLQMTSLRSEDTAMYYCASNNGYFYFDYWGQGTTLTVSS
VL: IVITQSPAILSASPGEKVTMTCRASSSVSYMHWYQQKPGSSPKPWIYATSNLASGVPARFSGSGSGTSYSLTVSRVEAEDAATYYCQQWSSDPFTFGSGTKLEIK

target: recombinant human 4-1BB (human, UniProt Q07011 24-186); assay: ELISA
Sequence (Q07011 24-186): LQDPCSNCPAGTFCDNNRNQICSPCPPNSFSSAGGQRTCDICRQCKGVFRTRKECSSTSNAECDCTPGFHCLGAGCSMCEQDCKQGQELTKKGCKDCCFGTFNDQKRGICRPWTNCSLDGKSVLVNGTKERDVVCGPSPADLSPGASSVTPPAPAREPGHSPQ

Binder | EC50
B1 | 16 ng/mL
B2 | 1.32 ng/mL
B3 | 4.71 ng/mL
